Results published in patent US20240156864A1.

biological target: CAR19.28ζ; test: co-IP with anti-CAR19 Ab from CAR-T cell lysate, LC-MS/MS
Sequence (chain, as listed by the source limits assumed): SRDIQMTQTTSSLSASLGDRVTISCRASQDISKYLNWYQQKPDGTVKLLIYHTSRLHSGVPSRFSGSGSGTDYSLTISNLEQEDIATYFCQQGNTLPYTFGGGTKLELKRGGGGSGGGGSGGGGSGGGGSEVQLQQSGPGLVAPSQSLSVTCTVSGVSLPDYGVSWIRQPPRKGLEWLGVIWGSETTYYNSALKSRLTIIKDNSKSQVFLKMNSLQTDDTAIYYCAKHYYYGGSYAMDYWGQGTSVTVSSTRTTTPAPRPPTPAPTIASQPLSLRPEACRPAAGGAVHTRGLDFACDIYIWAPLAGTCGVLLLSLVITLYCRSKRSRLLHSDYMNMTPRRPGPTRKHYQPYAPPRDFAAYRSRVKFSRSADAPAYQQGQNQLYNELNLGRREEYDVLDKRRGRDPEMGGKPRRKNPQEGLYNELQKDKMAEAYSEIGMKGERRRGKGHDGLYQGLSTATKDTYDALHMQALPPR

Point of comparison: PIK3R1 (from UniProt P27986 2-724), Area 2.3e+08. Against it:
- CD8α (from UniProt P01732 22-235) (receptor) — lower, 1.59e+08
- LCK (from UniProt P06239 2-509) (enzyme) — higher, 6.84e+08
- PIK3CD (from UniProt O00329 1-1044) (enzyme) — lower, 1.79e+08
- THEMIS (from UniProt Q8N1K5 1-641) — lower, 1.89e+07

Point of comparison: “PIK3CD (from UniProt O00329 1-1044) (enzyme)”, Coverage 13%. Against it:
- CD8α (from UniProt P01732 22-235) (receptor) — higher, 32%
- LCK (from UniProt P06239 2-509) (enzyme) — higher, 32%
- PIK3R1 (from UniProt P27986 2-724) — higher, 17%
- THEMIS (from UniProt Q8N1K5 1-641) — lower, 3%

With THEMIS (from UniProt Q8N1K5 1-641) the Peptides (number identified) was 2.
